We go through 22 sequences from the supplement of paper PMC9170038.

The subject of the data set is K4 kissing-loop RNA reporter. In words: apparent KD of K4 kissing-loop reporter; higher = weaker reporter binding. The following applies: Eterna round: R107. Here is the method:
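RNA-MaP round R107: designed RNA switches with theophylline, tryptophan, arginine or FMN aptamers are transcribed on-chip within common flanks. They are titrated with a labelled K4 kissing-loop RNA reporter in RNA-MaP buffer (100 mM Tris pH 7.5, 80 mM KCl, 4 mM MgCl2), without ligand or with the indicated ligand. Median apparent KD per design.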

The mark [1] stands for this setting: input ligand: theophylline 20 uM.
[2] abbreviates: input ligand: tryptophan 2.4 mM.
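Further: bound reporter read as fluorescence of individual clusters on recovered sequencing chips by microscopy, with normalized cluster intensities fitted with a binding model.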

Consider “CGUUUAUAGCAGGAUACCAGUACCCAUUAUGUACGUUUAUAGUAGAGUGAUGUUCUAAAGUACCCUUGGCAGCUUCCUGUGUCCC [ExTheophylB.Ab]”, for which the “apparent KD of K4 kissing-loop reporter” value (input ligand: FMN 200 uM) came out at 163 nM; the “apparent KD of K4 kissing-loop reporter” value (input ligand: arginine 13.2 mM) was determined as 178 nM; the “apparent KD of K4 kissing-loop reporter” value (input ligand: none) worked out at 190 nM; the “apparent KD of K4 kissing-loop reporter” value under setting [1] was found to be 198 nM; the “apparent KD of K4 kissing-loop reporter” value under setting [2] was 150 nM.

In the case of “CUAUAAGUGCCGAGUGAUGUUCGGCCAAUACGAGGACCGGUACGGCCGCCACUCGGUCAGUGGGUGCCCACCGGGCAUGGCUGAC [Cecezaa]”, the “apparent KD of K4 kissing-loop reporter” value is, setting by setting: (input ligand: FMN 200 uM) 174 nM; (input ligand: arginine 13.2 mM) 217 nM; (input ligand: none) 176 nM; under setting [1], 227 nM; under setting [2], 112 nM.

“CUCGAGUGAUGUUCGAUUAUUUAUACAGAUACCAGUGAAUUUUAACACCCUUGGCAGCUGGUUGUAUCAUUUUUUUUUACUAAAG [JR_ExcTheophyA_Sub008]”: the “apparent KD of K4 kissing-loop reporter” value stood at 140 nM (input ligand: FMN 200 uM); 166 nM (input ligand: arginine 13.2 mM); 179 nM (input ligand: none); 225 nM under setting [1]; 133 nM under setting [2].

With “CUGACCAACAGCGAUACCAGCGUGGAGUGAUGUUCCGUGGAUCGGAGUGAUGUUCCGAAGCGCCCUUGGCAGCGCAGAAGCAGGA [Exclusion Theophylline B GF11]”, the “apparent KD of K4 kissing-loop reporter” value runs as follows: (input ligand: FMN 200 uM) 197 nM; (input ligand: arginine 13.2 mM) 136 nM; (input ligand: none) 201 nM; under setting [1], 150 nM; under setting [2], 152 nM.

As for “CUGCCUCACUCGGCCGCCACUGUAUAAAUGUGACAGUGAUGUUGUCGUCGGAAAGGGCACUUAGGCAGGACCGGGAGUUUCAGGC [theeternabot_exclusion_KL_Trp_B_20]”, the “apparent KD of K4 kissing-loop reporter” value was 837 nM (input ligand: FMN 200 uM); 409 nM (input ligand: arginine 13.2 mM); 801 nM (input ligand: none); 870 nM under setting [1]; 686 nM under setting [2].

Consider “CUUAAGAUAUGAGUGAUGUUCAUGUCCGAAGGAGCGUGCGAAAGCACAGGUAGGUCGCGGAUGUGAGUGAUGUUCAUGUAAGCGA [KL-XArg-A12 #analogue]”, for which the “apparent KD of K4 kissing-loop reporter” value is, setting by setting: (input ligand: FMN 200 uM) 172 nM; (input ligand: arginine 13.2 mM) 105 nM; (input ligand: none) 119 nM; under setting [1], 135 nM; under setting [2], 153 nM.

As to “CUUGAGACAUGAGUGAUGUUCAUGUCCGAAGGAGCGUGCGAAAGCACAGGUAGGUCGCGGACGUGAGUGAUGUUCAUGUGAGCGA [KL-XArg-A10 #analogue]”, the “apparent KD of K4 kissing-loop reporter” value was 236 nM (input ligand: FMN 200 uM); 163 nM (input ligand: arginine 13.2 mM); 202 nM (input ligand: none); 223 nM under setting [1]; 201 nM under setting [2].

Consider “CUUGGAAGGACGGCCGCCACUGGGCAGUGAUGUUGCCCGACCAGGUAACGCAGUGAUGUUGCGACCAGGACCGGGUCCUAGGAAU [Exclusion Tryptophan B GF 24]”, for which the “apparent KD of K4 kissing-loop reporter” value is 161 nM (input ligand: FMN 200 uM); 140 nM (input ligand: arginine 13.2 mM); 155 nM (input ligand: none); 136 nM under setting [1]; 105 nM under setting [2].

For “CUUGGCAUGCGCGAUACCAGCGAACAUAGCAAGCUACGGGUAGUGAUGUUAUCUGAAUAACGCCCUUGGCAGCGCACAUGCCGGC [clock]”, the “apparent KD of K4 kissing-loop reporter” value was found to be 872 nM (input ligand: FMN 200 uM); 418 nM (input ligand: arginine 13.2 mM); 593 nM (input ligand: none); 679 nM under setting [1]; 712 nM under setting [2].

For “GAAAGAAAGAAUGAUACCAGACACCCGAGUGAUGUUCGGAGCAGAGUGAUGUUCUUUUAAGUCCCUUGGCAGCAUAAAAGAAAAG [whbob_SS_Theo_B_sa82]”, the “apparent KD of K4 kissing-loop reporter” value turned out to be 109 nM (input ligand: FMN 200 uM); 138 nM (input ligand: arginine 13.2 mM); 153 nM (input ligand: none); 159 nM under setting [1]; 119 nM under setting [2].

Regarding “GACAACAGGGUGAGACUCACGGCGCCAGAAGGAGCGGUGAUUCCACCAGGUAGGUCGCUGGCCCAGUGAUGUUGGGCUUUGUGUC [Onoran]”, the “apparent KD of K4 kissing-loop reporter” value by setting is: (input ligand: FMN 200 uM) 129 nM; (input ligand: arginine 13.2 mM) 120 nM; (input ligand: none) 138 nM; under setting [1], 133 nM; under setting [2], 123 nM.

For “GACAAUUCCGCUUCCGAGCAUACUUGACUGAAGGAUAUCAUCGUGUUGAGAAGGUCAGUAACAGAGAGUGAUGUUCUUUGAGGUC [theeternabot_sameState_KL_FMN_A_19]”, the “apparent KD of K4 kissing-loop reporter” value by setting is: (input ligand: FMN 200 uM) 242 nM; (input ligand: arginine 13.2 mM) 168 nM; (input ligand: none) 234 nM; under setting [1], 207 nM; under setting [2], 151 nM.

Consider “GAGAACUCUUACGAUACCAGCCGGAGUGAUGUUCCGUGCUUGGACGUAGUAACCCGCACCGGCCCUUGGCAGCGUGGAUCCUAUG [Biorar]”, for which the “apparent KD of K4 kissing-loop reporter” value reads like this: (input ligand: FMN 200 uM) 86.1 nM; (input ligand: arginine 13.2 mM) 78.3 nM; (input ligand: none) 82.3 nM; under setting [1], 79.3 nM; under setting [2], 74.4 nM.

As to “GAGAAUCUAAUUGAUACCAGAGUAAGAACCAGUGAUGUUGGAAGAUUCCCUAAUAAAUAACUCCCUUGGCAGCGGAAGAGAAUAG [Totally accidental 2]”, the “apparent KD of K4 kissing-loop reporter” value (input ligand: FMN 200 uM) was determined as 142 nM; the “apparent KD of K4 kissing-loop reporter” value (input ligand: arginine 13.2 mM) came to 230 nM; the “apparent KD of K4 kissing-loop reporter” value (input ligand: none) was found to be 176 nM; the “apparent KD of K4 kissing-loop reporter” value under setting [1] was found to be 327 nM; the “apparent KD of K4 kissing-loop reporter” value under setting [2] came to 172 nM.

Turning to “GAGGUACAGGCGGCCGCCACUAGUGAUGUUAGUGAUGUUAGAUAAAGUAUAUAUCGGCGUGUAGAUAGGACCGGGCCUGAUGGAG [ssrykmullin]”, the “apparent KD of K4 kissing-loop reporter” value is, setting by setting: (input ligand: FMN 200 uM) 49 nM; (input ligand: arginine 13.2 mM) 33.6 nM; (input ligand: none) 60 nM; under setting [1], 42 nM; under setting [2], 53.9 nM.

With “GAGGUACAGGCGGCCGCCACUAGUGAUGUUAGUGAUGUUUGAUACUGUAUAUAUCGGCGUGUAGAUAGGACCGGGCCUGAUGGAG [znmkmullin]”, the “apparent KD of K4 kissing-loop reporter” value worked out at 122 nM (input ligand: FMN 200 uM); 78.7 nM (input ligand: arginine 13.2 mM); 100 nM (input ligand: none); 109 nM under setting [1]; 91.8 nM under setting [2].

Turning to “GAUGAUCGCGCGGCCGCCACUGGUCAGUGAUGUUGACAUUAAUGCGCCGAGUAGUAACGGCGCAACAGGACCGGGCGCGAUGUAG [#11 K4 Tryptophan B Same State]”, the “apparent KD of K4 kissing-loop reporter” value by setting is: (input ligand: FMN 200 uM) 165 nM; (input ligand: arginine 13.2 mM) 160 nM; (input ligand: none) 143 nM; under setting [1], 185 nM; under setting [2], 171 nM.

For “GCAACAUUGGCAGGAUAUCCUUCUCAGUGAUGUUGAGGGUUCAGCUAACGAAAGUUAGUUGUACCAGGAGAAGGGCUAAUGUUGC [Omei KL FMN B SS A v7]”, the “apparent KD of K4 kissing-loop reporter” value (input ligand: FMN 200 uM) is 416 nM; the “apparent KD of K4 kissing-loop reporter” value (input ligand: arginine 13.2 mM) worked out at 815 nM; the “apparent KD of K4 kissing-loop reporter” value (input ligand: none) amounted to 1420 nM; the “apparent KD of K4 kissing-loop reporter” value under setting [1] was 906 nM; the “apparent KD of K4 kissing-loop reporter” value under setting [2] came to 1440 nM.

Regarding “GCAACAUUGGGAGGAUAUCAUUCUGAGUGAUGUUCAGGGUUCAGCUAACGAAAGUUAGUUGUACCAUGAGAAGGUCUAAUGUUGC [Omei KL FMN B SS A v6]”, the “apparent KD of K4 kissing-loop reporter” value was 342 nM (input ligand: FMN 200 uM); 975 nM (input ligand: arginine 13.2 mM); 1180 nM (input ligand: none); 1020 nM under setting [1]; 1150 nM under setting [2].

Take “GCAAGGCUACAAGGAUAUGCGCGAACCUACCGCCAAGCGGCUACCGGUGAGUCAGUGAUGUUGGCUGCAGAAGGUGUGAUUGAGC [theeternabot_sameState_KL_FMN_B_45]”: the “apparent KD of K4 kissing-loop reporter” value by setting is: (input ligand: FMN 200 uM) 383 nM; (input ligand: arginine 13.2 mM) 301 nM; (input ligand: none) 365 nM; under setting [1], 380 nM; under setting [2], 334 nM.

“GCACUACAAUAAGGAUAUCAUAAAAUGGAGAGCGAGUGAUGUUCGCAGAGACACCUAUUUUUCCUAUGAGAAGGUAUUAACGCCG [theeternabot_sameState_KL_FMN_B_40]”: the “apparent KD of K4 kissing-loop reporter” value is 97.8 nM (input ligand: FMN 200 uM); 99 nM (input ligand: arginine 13.2 mM); 120 nM (input ligand: none); 161 nM under setting [1]; 93.2 nM under setting [2].

Consider “GCACUCCAUCGGACGUAAGUGAUGUUUACCCGAGGACCGGUACGGCCGCCACUCGACCGUGCAUAACCAAAUCAAAUAGCUUCCG [theeternabot_exclusion_KL_Trp_A_31]”, for which the “apparent KD of K4 kissing-loop reporter” value (input ligand: FMN 200 uM) came out at 143 nM; the “apparent KD of K4 kissing-loop reporter” value (input ligand: arginine 13.2 mM) was determined as 127 nM; the “apparent KD of K4 kissing-loop reporter” value (input ligand: none) is 138 nM; the “apparent KD of K4 kissing-loop reporter” value under setting [1] came out at 120 nM; the “apparent KD of K4 kissing-loop reporter” value under setting [2] was found to be 221 nM.
